# Substitutions are numbered along the chain they refer to. In names and notes the source's numbering stands. Several values for one entry are separate records, joined by “and”; a condition that tells them apart may be missing. Equal entries are not always repeated.
# B1: wt ALKBH3: wild-type human Fe(II)/2OG-dependent dioxygenase ALKBH3 with N-terminal His-tag, expressed in E. coli (protein, UniProt Q96Q83 1-286, looked up)
# Alpha-ketoglutarate-dependent …: MEEKRRRARVQGAWAAPVKSQAIAQPATTAKSHLHQKPGQTWKNKEHHLSDREFVFKEPQQVVRRAPEPRVIDREGVYEISLSPTGVSRVCLYPGFVDVKEADWILEQLCQDVPWKQRTGIREDITYQQPRLTAWYGELPYTYSRITMEPNPHWHPVLRTLKNRIEENTGHTFNSLLCNLYRNEKDSVDWHSDDEPSLGRCPIIASLSFGATRTFEMRKKPPPEENGDYTYVERVKIPLDHGTLLIMEGATQADWQHRVPKEYHSREPRVNLTFRTVYPDPRGAPW
# modifications: N-terminal His-tag
# notes: wild-type human Fe(II)/2OG-dependent dioxygenase ALKBH3 with N-terminal His-tag, expressed in E. coli
# B2: Y143F ALKBH3: ALKBH3 mutant, Tyr143 replaced with Phe (protein, UniProt Q96Q83 1-286, looked up, variant Y143F)
# Alpha-ketoglutarate-dependent …: B1 Alpha-ketoglutarate-dependent … with Y143F
# B3: Y143A ALKBH3: ALKBH3 mutant, Tyr143 replaced with Ala (protein, UniProt Q96Q83 1-286, looked up, variant Y143A)
# Alpha-ketoglutarate-dependent …: B1 Alpha-ketoglutarate-dependent … with Y143A
# B4: L177A ALKBH3: ALKBH3 mutant, Leu177 replaced with Ala (protein, UniProt Q96Q83 1-286, looked up, variant L177A)
# Alpha-ketoglutarate-dependent …: B1 Alpha-ketoglutarate-dependent … with L177A
# B5: H191A ALKBH3: ALKBH3 mutant, His191 replaced with Ala (protein, UniProt Q96Q83 1-286, looked up, variant H191A)
# Alpha-ketoglutarate-dependent …: B1 Alpha-ketoglutarate-dependent … with H191A
# What was measured:
# [1] = test system: single-stranded DNA substrate m3C_FAM; experiment: Enzymatic demethylation of single-stranded m3C DNA (chemical quenching, HpaII cleavage, PAGE); type: biochemical; settings: for observed rate constant for demethylation, kobs: single exponential fit of product accumulation; for maximum DNA substrate demethylation degree (product yield): 90 min reaction, 2 µM enzyme and m3C_FAM, 40 µM Fe(II), 1 mM 2OG, 25 °C
# Protocol: The enzymatic activity of wt ALKBH3 dioxygenase and the Y143F, Y143A, L177A, and H191A mutants was investigated in a reaction with a 15nt single-stranded oligonucleotide substrate containing m3C at the ninth position from the 5’-end (see Section 4).
# An enzymatic hydroxylation of a single-strand m3C-containing DNA was studied using a chemical quenching technique recently described for the ALKBH2 dioxygenase in [7]. Briefly, a typical reaction mixture contained an equimolar amount (2 µM) of the protein and FAM-labeled DNA substrate (m3C_FAM) in a buffer consisting of 50 mM of HEPES-KOH (pH 7.8), 50 mM of KCl, 10 mM of MgCl2, 1 mM of 2OG, 2 mM of sodium ascorbate, and 40 µM of (NH4)2Fe(SO4)2·6H2O. An equal volume of 0.2 M NaOH was added to […] of aliquots of the mixture to terminate the reaction at certain time points. After neutralization with HCl and desalting, each of the aliquots was supplemented by the complementary DNA strand and treated with the HpaII restriction endonuclease specific to the repaired sequence (CCGG) according to the manufacturer’s protocol. The resulting reaction product was separated from the substrate using denaturating PAGE and visualized by the Amersham Typhoon Imager (Cytiva, Uppsala, Sweden) (Supplementary Figure S1). Data for the wt, Y143F, and Y143A proteins were converted to mol/L units and then fitted to a single exponent (Equation (1)), where P, P0, and Pmax are amounts of product at any given time, at the zero-time point, and the end time point, respectively; kobs is the observed rate constant. (1) P=P0+Pmax(1−exp−kobst) […]
# Figure 2 The catalytic activity of wt and mutant ALKBH3 proteins on single-stranded DNA substrate m3C_FAM. Time courses of the dealkylated product accumulation were obtained at 25 °C by mixing an equimolar amount (2 μM) of enzyme and FAM-labeled DNA substrate dissolved in the reaction buffer containing 40 μM Fe(II) and 1 mM 2OG. Each reaction time point is the mean ± SD of three technical replicates.
# Figure S1. PAGE analysis of ALKBH3 repair activity towards the m3C -containing substrate. ALKBH3 at 2 µM was incubated with an equimolar amount of a FA M - labelled single-stranded substrate m3C_FAM. The reaction was quenched at each time point by the addition of an equal volume of 0.2 M NaOH.
# (1 picture or pasted object on this page, not shown here)
# [2] = Thermal denaturation followed by CD spectroscopy; type: physicochemical; settings: for Tm: apoprotein 0.2 mg/mL, 10 mM potassium phosphate pH 7.8, 50 mM (NH4)2SO4; for ΔH (enthalpy of unfolding) / ΔS (entropy of unfolding): apoprotein, single-stage model; for ΔG^298: calculated from ΔH and ΔS at 298 K
# Protocol: The effect of substitutions of conserved amino acids in the active site of ALKBH3 on its thermal stability was studied by circular dichroism (CD) spectroscopy combined with thermal denaturation of the samples. The CD data were collected for wt and mutant apoproteins at various temperatures (25–70 °C) with 2–5 °C intervals (Supplementary Figure S3). […] Melting profiles expressed as a temperature dependence of the mean residue ellipticity at 218 nm were largely sigmodal, indicating the presence of a single transition between the folded and unfolded state (Figure 6B).
# The melting profiles were analyzed quantitatively using characteristic wavelengths between 208 and 222 nm by a single-stage model.
# Thermal stability experiments were performed under the same conditions. The spectra were collected from 25 to 70 °C, with the samples incubated at each temperature for 3–5 min before measuring. After that, each sample was gradually cooled to 25 °C and the spectrum was recorded again to observe possible refolding of the protein. Melting curves were corrected for background, transformed to the mean residue ellipticity units, and smoothed using the Savitzky–Golay method with a polynomial order of 3. Values of [θ] at wavelengths of 208 and 218 nm as a function of temperature were used to determine the thermodynamics of folding. The values of Tm and ΔH were determined by non-linear regression analysis with the help of Equations (6)–(8):(6) θt=θu+θf−θuK/1+K, (7) K=exp(ΔH/1.987·tt/Tm−1)=exp(−ΔH−t·ΔS/1.987·t), (8) ΔG=−RTlnK where θt—the mean residue ellipticity (in deg·cm^2·dmol^−1) at any given temperature t; θu—the mean residue ellipticity of the unfolded protein; θf—the mean residue ellipticity of the folded protein; K—the constant of unfolding; Tm—the melting temperature; ΔH—the enthalpy of unfolding, ΔS—the entropy of unfolding.
# Figure 6 Thermal stability of wt and mutant ALKBH3 proteins measured by CD spectroscopy. (A) Spectra of wt ALKBH3 between 180 and 270 nm at 25 °C (light blue), after heating to 70 °C (dark blue), and cooling again to 25 °C (dashed light blue). (B) Representative melting profiles of wt (blue), Y143F (yellow), Y143A (green), L177A (red), and H191A ALKBH3 (violet) derived from the θ values at 218 nm. The unfolding transitions were monitored 0.2 mg/mL of the apoprotein in 10 mM Potassium Phosphate (pH 7.8) and 50 mM (NH4)2SO4.
Molecule,"observed rate constant for demethylation, kobs [1]",Tm [2],Tm ([2]; listed as wt),ΔH (enthalpy of unfolding) [2],ΔS (entropy of unfolding) [2],ΔH (enthalpy of unfolding) ([2]; listed as wt),ΔG^298 [2],maximum DNA substrate demethylation degree (product yield) [1],increase in ΔH relative to wt [2],increase in ΔS relative to wt [2],reduction in melting temperature relative to wt [2]
B1,0.70 ± 0.08 min⁻¹,45.5 °C and 45.6 °C,45.6 ± 0.7 °C,42 kcal/mol,133 ± 2 cal/mol·K,43 ± 1 kcal/mol,3.4 ± 0.1 kcal/mol,,,,
B2,0.17 ± 0.02 min⁻¹,43.5 ± 0.4 °C,,75 ± 5 kcal/mol,236 ± 3 cal/mol·K,,4.7 ± 0.3 kcal/mol,30%,32 kcal/mol,103 cal/mol·K,2.1 °C
B3,,44.2 ± 0.2 °C,,54 ± 2 kcal/mol,170 ± 0.6 cal/mol·K,,3.3 ± 0.1 kcal/mol,10%,,,
B4,,44.5 ± 0.6 °C,,79 ± 5 kcal/mol,249 ± 1.3 cal/mol·K,,4.8 ± 0.4 kcal/mol,≤ 7%,,,1.1 °C
B5,,42.7 ± 0.1 °C,,127 ± 9 kcal/mol,403 cal/mol·K and 403 ± 0.4 cal/mol·K,,6.9 ± 0.5 kcal/mol,undetectable,,,

# — PMC10816986, “The Role of Key Amino Acids of the Human Fe(II)/2OG-Dependent Dioxygenase ALKBH3 in Structural Dynamics and Repair Activity toward Methylated DNA” (International Journal of Molecular Sciences, 2024)
